Six molecules from article PMC8281026, “Peptide Based Inhibitors of Protein Binding to the Mitogen-Activated Protein Kinase Docking Groove” (Frontiers in Molecular Biosciences, 2021) can be followed below.

One may read the Kd as the equilibrium constant for the complex coming apart. A higher Kd goes with a looser complex.

Primed or numbered codes have the meaning given here. The star is where a group is joined. Dabcyl′ = 4-((4-(dimethylamino)phenyl)azo)benzoyl, CN(C)c1ccc(/N=N/c2ccc(C(=O)*)cc2)cc1

B1: Dabcyl-RRRPPWLRLDIRRK-NH2 (peptide 10) (peptide)
peptide: {Dabcyl′}-RRRPPWLRLDIRRK-NH2
SMILES: CC[C@H](C)[C@H](NC(=O)[C@H](CC(=O)O)NC(=O)[C@H](CC(C)C)NC(=O)[C@H](CCCNC(=N)N)NC(=O)[C@H](CC(C)C)NC(=O)[C@H](Cc1c[nH]c2ccccc12)NC(=O)[C@@H]1CCCN1C(=O)[C@@H]1CCCN1C(=O)[C@H](CCCNC(=N)N)NC(=O)[C@H](CCCNC(=N)N)NC(=O)[C@H](CCCNC(=N)N)NC(=O)c1ccc(/N=N/c2ccc(N(C)C)cc2)cc1)C(=O)N[C@@H](CCCNC(=N)N)C(=O)N[C@@H](CCCNC(=N)N)C(=O)N[C@@H](CCCCN)C(N)=O
notes: peptide 8 with a Lys at the C-terminus and a Dabcyl group on the N-terminus; also called Dabcyl-containing peptide (unlabelled); source: synthetic peptide (Fmoc/tBu solid phase on Rink-amide MBHA resin, RP-HPLC purified)
B2: H-RRPPWLRLDI-NH2 (peptide 5) (peptide)
peptide: H-RRPPWLRLDI-NH2
notes: source: synthetic peptide (Fmoc/tBu solid phase on Rink-amide MBHA resin, RP-HPLC purified)
B3: H-RRRPPWLRLDIRR-NH2 (peptide 8) (peptide)
peptide: H-RRRPPWLRLDIRR-NH2
notes: peptide 6 with one more Arg at the N-terminus; source: synthetic peptide (Fmoc/tBu solid phase on Rink-amide MBHA resin, RP-HPLC purified)
B4: H-SLQRKKPPWLKLDIPSC-NH2 (peptide 1, RHDF1 linear binding motif) (peptide)
peptide: H-SLQRKKPPWLKLDIPSC-NH2
notes: C-terminal cysteine that follows the 16 residues of the motif in the printed peptide; not part of the motif as printed in the text; The added Cys probably serves for conjugation (cysteine containing peptides were joined to chloroacetylated peptides); also called original peptide; source: synthetic peptide (Fmoc/tBu solid phase on Rink-amide MBHA resin, RP-HPLC purified)
B5: H-RRPPWLRLDIRR-NH2 (peptide 6) (peptide)
peptide: H-RRPPWLRLDIRR-NH2
notes: peptide 5 extended at the C-terminus by two Arg; source: synthetic peptide (Fmoc/tBu solid phase on Rink-amide MBHA resin, RP-HPLC purified)
B6: H-KKPPWLKLDI-NH2 (peptide 4) (peptide)
peptide: H-KKPPWLKLDI-NH2
notes: RHDF1 docking motif without the flanking regions SLQR (N-terminus) and PS (C-terminus); also called short peptide; truncated construct; source: synthetic peptide (Fmoc/tBu solid phase on Rink-amide MBHA resin, RP-HPLC purified)

T1 sequence (P28482 whole entry): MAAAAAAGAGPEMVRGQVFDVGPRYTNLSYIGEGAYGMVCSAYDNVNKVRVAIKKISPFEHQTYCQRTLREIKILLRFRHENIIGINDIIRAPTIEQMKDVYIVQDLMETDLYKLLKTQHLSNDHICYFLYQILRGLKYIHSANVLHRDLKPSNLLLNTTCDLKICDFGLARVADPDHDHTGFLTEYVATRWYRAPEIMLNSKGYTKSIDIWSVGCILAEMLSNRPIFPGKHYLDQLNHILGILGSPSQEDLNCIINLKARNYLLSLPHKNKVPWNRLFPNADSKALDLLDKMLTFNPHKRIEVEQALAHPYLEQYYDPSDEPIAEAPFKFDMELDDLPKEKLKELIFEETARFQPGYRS

One test has as its target T1, ERK2 (UniProt P28482 1-360).
T1 construct: The in vitro activity assay used active, phosphorylated pp-ERK2 (1 nM); also called extracellular signal-regulated kinase 2; MAPK; source: recombinantly expressed in Escherichia coli, purified according to Garai et al
Put plainly: fluorescence polarisation; competitive: complex of the MAPK with 50 nM Cf-RHDF at 60-80% complex formation titrated with increasing unlabeled peptide; 20 mM Tris pH 8.0, 100 mM NaCl, 0.05% Brij35, 2 mM TCEP; 384-well black plates; triplicates; constants are called Kd in Table 1 and Ki in the methods. The settings on record: both partners purified.
B1 displayed a Kd of 4.6 µM. The same measure, in the same setting: the result for B2 reads 19.5 µM; that for B3, 1.3 µM; that for B4, 1.8 µM.

For B5, the equilibrium dissociation constant (Kd) was determined as 5.2 µM. This Kd is about 2.9-fold higher than that of the molecule before. On the same count and under the same terms, with B6 the figure was 15 µM.

For the next test, the target named is T2, p38α (UniProt Q16539 1-360).
T2 construct: The in vitro activity assay used active, phosphorylated pp-p38α (1 nM); source: recombinantly expressed in Escherichia coli, purified according to Garai et al
T2 sequence (Q16539 whole entry): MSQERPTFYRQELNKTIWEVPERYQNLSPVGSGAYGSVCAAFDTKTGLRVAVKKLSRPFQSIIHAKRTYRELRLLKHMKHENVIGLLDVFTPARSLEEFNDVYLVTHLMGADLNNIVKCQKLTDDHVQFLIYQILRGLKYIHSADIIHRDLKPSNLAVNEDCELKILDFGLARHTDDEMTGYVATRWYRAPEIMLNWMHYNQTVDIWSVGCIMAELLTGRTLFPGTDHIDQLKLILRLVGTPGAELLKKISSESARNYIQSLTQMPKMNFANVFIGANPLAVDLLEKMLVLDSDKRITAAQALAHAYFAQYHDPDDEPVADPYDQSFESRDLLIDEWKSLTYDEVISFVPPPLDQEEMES
The description is as above. The settings on record: both partners purified.
For B1, binding was characterised by a dissociation constant (Kd) of 1 µM. In turn, B2 had a Kd of 10 µM.

Regarding B3, the Kd stood at 1.4 µM. The molecule B4 gave a Kd of 1.1 µM.
